Assay results from publication PMC9930398, “SlMYB1 regulates the accumulation of lycopene, fruit shape, and resistance to Botrytis cinerea in tomato”.

B1: SlPSY2pro probe (dsDNA)
DNA 1: TCGGTTATCGGTTATCGGTTA
DNA 2: TAACCGATAACCGATAACCGA
B2: SlPR5pro probe (dsDNA)
DNA 1: TCCGTTCTCCGTTCTCCGTTC
DNA 2: GAACGGAGAACGGAGAACGGA
B3: SlLCY1pro probe (dsDNA)
DNA 1: ACCGTTCACCGTTCACCGTTC
DNA 2: GAACGGTGAACGGTGAACGGT

Target: SlMYB1-GST (Solanum lycopersicum, UniProt A0A3Q7I0H7 1-380)
Test: EMSA; EMSA/Gel-Shift kit (Biyuntian/Beyotime) per instructions; buffer, salt, pH and temperature not stated
Settings: protein: recombinant; tags: GST (pGEX-4T-1, N-terminal by vector); label: biotin; blunt

SlMYB1-GST, sequence (A0A3Q7I0H7 entry or part of it): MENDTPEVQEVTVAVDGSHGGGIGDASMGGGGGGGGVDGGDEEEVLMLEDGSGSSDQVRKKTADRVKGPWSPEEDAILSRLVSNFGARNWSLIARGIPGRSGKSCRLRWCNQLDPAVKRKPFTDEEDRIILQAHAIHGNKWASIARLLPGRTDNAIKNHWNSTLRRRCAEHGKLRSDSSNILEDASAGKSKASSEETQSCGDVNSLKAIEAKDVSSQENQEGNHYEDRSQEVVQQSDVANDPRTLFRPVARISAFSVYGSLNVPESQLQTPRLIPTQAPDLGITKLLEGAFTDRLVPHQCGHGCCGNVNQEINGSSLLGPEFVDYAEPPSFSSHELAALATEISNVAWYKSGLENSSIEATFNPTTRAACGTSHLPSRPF

Binder | binding result
B1 | binds
B2 | binds
B3 | binds
